Laboratory results: patent US5434246A, “Parathyroid hormone derivatives” (Takeda Chemical Industries, Ltd., priority 1992, dated 1995)
Values joined by “and” are separate entries in the source; they are usually repeats but may differ in a detail not shown here. Equal values may be shown once.

molecular target: T1, PTH receptor (Mus musculus, UniProt P41593); assay: cAMP production in MC3T3-EI osteoblast-like cells (biological activity of PTH(1-34) derivatives); type: cell-based; details: 0.01-100 nM derivative, room temperature 30 minutes, hPTH(1-34) standard = 1.00
T1 construct: a mouse cranial bone-derived osteoblast-like cell strain, MC3T3-EI cells; endogenous in cells; host or cells: MC3T3-E1 mouse osteoblast-like cells
T1 sequence (P41593 27-591): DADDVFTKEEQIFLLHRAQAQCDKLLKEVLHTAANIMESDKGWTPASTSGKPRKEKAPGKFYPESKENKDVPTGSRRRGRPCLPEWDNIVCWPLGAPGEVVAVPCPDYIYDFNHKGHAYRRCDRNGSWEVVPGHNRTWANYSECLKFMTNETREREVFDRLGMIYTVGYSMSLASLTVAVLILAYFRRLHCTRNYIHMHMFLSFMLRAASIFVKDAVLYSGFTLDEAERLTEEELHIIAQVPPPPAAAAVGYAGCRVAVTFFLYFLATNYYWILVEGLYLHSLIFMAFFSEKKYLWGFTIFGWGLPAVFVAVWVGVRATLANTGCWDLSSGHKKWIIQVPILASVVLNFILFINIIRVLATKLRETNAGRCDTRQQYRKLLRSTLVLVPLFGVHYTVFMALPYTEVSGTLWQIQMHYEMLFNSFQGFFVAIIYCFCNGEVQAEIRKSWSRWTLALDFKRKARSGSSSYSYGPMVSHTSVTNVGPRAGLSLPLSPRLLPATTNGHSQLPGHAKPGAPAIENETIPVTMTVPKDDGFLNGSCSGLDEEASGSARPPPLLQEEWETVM
Procedure: The biological activity of the PTH (1-34) derivatives was evaluated by a modified version of the method reported by Shigeno et al. in The Journal of Biological Chemistry 263, 18369-18377 (1988). A culture solution (Hank's solution, containing 20 mM N-2-hydroxyethylpiperazine-N'-2-ethanesulfonic acid-(HEPES), 0.1% bovine serum albumin and 0.5 mM isobutylmethyl-xanthine) containing a 0.01, 0.1, 1, 10 or 100 nM derivative was added in an amount of 100 μl to a mouse cranial bone-derived osteoblast-like cell strain, MC3T3-EI cells, cultivated on a 96-well multiplate (Nunclon, Nunc), followed by reaction at room temperature for 30 minutes. After addition of 100 μl of 0.2N hydrochloric acid, the mixture was immersed in boiling water for 2.5 minutes, and cyclic adenosine monophosphate (cAMP) produced by a PTH receptor was extracted from the cells. The total cAMP in the culture solution and the cells was assayed using a commercial radioimmunoassay kit (cyclic AMP [^125 I] kit "Du Pont-Daiichi", Daiichi Kagaku Yakuhin).

Row | Molecule | Biological Activity, Represented by Relative Activity to hPTH(1-34)
1 | CC[C@H](C)[C@H](NC(=O)[C@H](CCC(=O)O)NC(=O)[C@@H](C)NC(=O)[C@@H](NC(=O)[C@@H](N)CO)C(C)C)C(=O)N[C@@H](CCC(N)=O)C(=O)N[C@@H](CC(C)C)C(=O)N[C@@H](CCSC)C(=O)N[C@@H](Cc1c[nH]cn1)C(=O)N[C@@H](CC(N)=O)C(=O)N[C@@H](CC(C)C)C(=O)NCC(=O)N[C@@H](CCCCN)C(=O)N[C@@H](Cc1c[nH]cn1)C(=O)N[C@@H](CC(C)C)C(=O)N[C@@H](CC(N)=O)C(=O)N[C@@H](CO)C(=O)N[C@@H](CCSC)C(=O)N[C@@H](CCC(=O)O)C(=O)N[C@@H](CCCNC(=N)N)C(=O)N[C@H](C(=O)N[C@@H](CCC(=O)O)C(=O)N[C@@H](Cc1c[nH]c2ccccc12)C(=O)N[C@@H](CC(C)C)C(=O)N[C@@H](CCCNC(=N)N)C(=O)N[C@@H](CCCCN)C(=O)N[C@@H](CCCCN)C(=O)N[C@@H](CC(C)C)C(=O)N[C@@H](CCC(N)=O)C(=O)N[C@@H](CC(=O)O)C(=O)N[C@H](C(=O)N[C@@H](Cc1c[nH]cn1)C(=O)N[C@@H](CC(N)=O)C(=O)N[C@@H](Cc1ccccc1)C(=O)O)C(C)C)C(C)C [[D-Ala^3]hPTH(1-34)] | 2.17
2 | CC[C@H](C)[C@H](NC(=O)[C@H](CCC(=O)O)NC(=O)[C@H](CO)NC(=O)[C@@H](NC(=O)[C@@H](N)CO)C(C)C)C(=O)N[C@@H](CCC(N)=O)C(=O)N[C@@H](CC(C)C)C(=O)N[C@@H](CCSC)C(=O)N[C@@H](Cc1c[nH]cn1)C(=O)N[C@@H](CC(N)=O)C(=O)N[C@@H](CC(C)C)C(=O)NCC(=O)N[C@@H](CCCCN)C(=O)N[C@@H](Cc1c[nH]cn1)C(=O)N[C@@H](CC(C)C)C(=O)N[C@H](CCCCN)C(=O)N[C@@H](CO)C(=O)N[C@@H](CCSC)C(=O)N[C@@H](CCC(=O)O)C(=O)N[C@@H](CCCNC(=N)N)C(=O)N[C@H](C(=O)N[C@@H](CCC(=O)O)C(=O)N[C@@H](Cc1c[nH]c2ccccc12)C(=O)N[C@@H](CC(C)C)C(=O)N[C@@H](CCCNC(=N)N)C(=O)N[C@@H](CCCCN)C(=O)N[C@@H](CCCCN)C(=O)N[C@@H](CC(C)C)C(=O)N[C@@H](CCC(N)=O)C(=O)N[C@@H](CC(=O)O)C(=O)N[C@H](C(=O)N[C@@H](Cc1c[nH]cn1)C(=O)N[C@@H](CC(N)=O)C(=O)N[C@@H](Cc1ccccc1)C(=O)O)C(C)C)C(C)C [[D-Lys^16]hPTH(1-34)] | 0.86
3 | CC[C@H](C)[C@H](NC(=O)[C@H](CCC(=O)O)NC(=O)[C@H](CO)NC(=O)[C@@H](NC(=O)[C@@H](N)CO)C(C)C)C(=O)N[C@@H](CCC(N)=O)C(=O)N[C@@H](CC(C)C)C(=O)N[C@@H](CCSC)C(=O)N[C@@H](Cc1c[nH]cn1)C(=O)N[C@@H](CC(N)=O)C(=O)N[C@@H](CC(C)C)C(=O)NCC(=O)N[C@@H](CCCCN)C(=O)N[C@@H](Cc1c[nH]cn1)C(=O)N[C@@H](CC(C)C)C(=O)N[C@@H](CCC(N)=O)C(=O)N[C@@H](CO)C(=O)N[C@@H](CCSC)C(=O)N[C@@H](CCC(=O)O)C(=O)N[C@@H](CCCNC(=N)N)C(=O)N[C@H](C(=O)N[C@@H](CCC(=O)O)C(=O)N[C@@H](Cc1c[nH]c2ccccc12)C(=O)N[C@@H](CC(C)C)C(=O)N[C@@H](CCCNC(=N)N)C(=O)N[C@@H](CCCCN)C(=O)N[C@@H](CCCCN)C(=O)N[C@@H](CC(C)C)C(=O)N[C@@H](CCC(N)=O)C(=O)N[C@@H](CC(=O)O)C(=O)N[C@H](C(=O)N[C@@H](Cc1c[nH]cn1)C(=O)N[C@@H](CC(N)=O)C(=O)N[C@@H](Cc1ccccc1)C(=O)O)C(C)C)C(C)C [[Gln^16]hPTH(1-34)] | 1.73
4 | CC[C@H](C)[C@H](NC(=O)[C@H](CCC(=O)O)NC(=O)[C@H](CO)NC(=O)[C@@H](NC(=O)[C@@H](N)CO)C(C)C)C(=O)N[C@@H](CCC(N)=O)C(=O)N[C@@H](CC(C)C)C(=O)N[C@@H](CCSC)C(=O)N[C@@H](Cc1c[nH]cn1)C(=O)N[C@@H](CC(N)=O)C(=O)N[C@@H](CC(C)C)C(=O)NCC(=O)N[C@@H](CCCCN)C(=O)N[C@@H](Cc1c[nH]cn1)C(=O)N[C@@H](CC(C)C)C(=O)N[C@@H](CCC(=O)O)C(=O)N[C@@H](CO)C(=O)N[C@@H](CCSC)C(=O)N[C@@H](CCC(=O)O)C(=O)N[C@@H](CCCNC(=N)N)C(=O)N[C@H](C(=O)N[C@@H](CCC(=O)O)C(=O)N[C@@H](Cc1c[nH]c2ccccc12)C(=O)N[C@@H](CC(C)C)C(=O)N[C@@H](CCCNC(=N)N)C(=O)N[C@@H](CCCCN)C(=O)N[C@@H](CCCCN)C(=O)N[C@@H](CC(C)C)C(=O)N[C@@H](CCC(N)=O)C(=O)N[C@@H](CC(=O)O)C(=O)N[C@H](C(=O)N[C@@H](Cc1c[nH]cn1)C(=O)N[C@@H](CC(N)=O)C(=O)N[C@@H](Cc1ccccc1)C(=O)O)C(C)C)C(C)C [[Glu^16]hPTH(1-34)] | 1.55

molecular target: PTH receptor (mouse) (UniProt P41593); assay: not given; details: not given

Row | Molecule | cAMP production in MC3T3-E1 cells, relative activity to hPTH(1-34) (relative activity to hPTH(1-34))
5 | [Arg^16,Gln^27 ]hPTH(1-34) (from UniProt P01270) (peptide) | 2.16
6 | [Arg^26,27 ]hPTH(1-34) (from UniProt P01270) (peptide) | 0.98
7 | [D-Ala^3 ]hPTH(1-34) (from UniProt P01270) (peptide) | 2.17
8 | [D-Lys^16 ]hPTH(1-34) (from UniProt P01270) (peptide) | 0.86
9 | [Gln^16 ]hPTH(1-34) (from UniProt P01270) (peptide) | 1.73
10 | [Gln^25,26,27 ]hPTH(1-34) (from UniProt P01270) (peptide) | 0.41
11 | [Gln^26,27 ]hPTH(1-34) (from UniProt P01270) (peptide) | 1.19
12 | [Glu^16 ]hPTH(1-34) (from UniProt P01270) (peptide) | 1.55
13 | [Hci^16,Gln^27 ]hPTH(1-34) (from UniProt P01270) (peptide) | 1.54
14 | [Lys^14,15,16,17 ]hPTH(1-34) (from UniProt P01270) (peptide) | 6.39
15 | [Lys^15,16,17 ]hPTH(1-34) (from UniProt P01270) (peptide) | 7.62
16 | [Lys^15,16,17,His^27 ]hPTH(1-34) (from UniProt P01270) (peptide) | 7.47
17 | [Lys^15,16,His^27 ]hPTH(1-34) (from UniProt P01270) (peptide) | 1.49
18 | [Lys^16 ]hPTH(1-34) (from UniProt P01270) (peptide) | 5.48 and 3.37
19 | [Lys^16,17 ]hPTH(1-34) (from UniProt P01270) (peptide) | 8.85
20 | [Lys^16,Asp^17 ]hPTH(1-34) (from UniProt P01270) (peptide) | 1.24
21 | [Orn^16,Gln^27 ]hPTH(1-34) (from UniProt P01270) (peptide) | 1.82
22 | [Thr^16 ]hPTH(1-34) (from UniProt P01270) (peptide) | 1.74
23 | [Thr^27 ]hPTH(1-34) (from UniProt P01270) (peptide) | 0.96
